# Laboratory results published in US11819556B2, “Stabilized compositions of radionuclides and uses thereof” (RayzeBio, Inc., priority 2021, dated 2023).
# Experiments:
# Type in all cases: physicochemical
# [1] = Control formulation without excipient (WFI): radio-TLC purity; settings: 0.02 mCi/ml; for free Actinium / fragments: 25° C.; for Percentage of ^225Ac present in [^225Ac]Ac-DOTA-TATE: pH 6.13, 25° C.
# Experimental: The mixture was kept at room temperature (25° C.). At different time points, purity of [^225Ac]Ac-DOTA-TATE in the formulated dose were measured by radio-TLC as described in the table below: […]
# [2] = Radioactivity concentration optimization: radio-TLC purity; settings: 100 mM sodium ascorbate pH 5.80, 0.05 mg/ml DTPA, 25° C.
# Experimental: The mixture was kept at room temperature (25° C.) and protected from light to prevent photodegradation. At different time points, purity of [^225Ac]Ac-DOTA-TATE in the formulated dose were measured by radio-TLC as described in the table below: […]
# [3] = DTPA concentration optimization: radio-TLC purity; settings: 20 μCi/ml, 100 mM sodium ascorbate pH 5.80, 25° C.
# Experimental: The mixture was kept at room temperature (25° C.). At different time points, radioactive components of the formulated dose were measured by radio-TLC as described in the table below: […]
substance,measurement,setting,value
"(2,2′,2″-(10-(2-4(R)-1-(((4R,7S,10S,13R,16S,19R)-13-((1H-indol-3-yl)methyl)-10-(4-aminobutyl)-4-(((1S,2R)-1-carboxy-2-hydroxypropyl)carbamoyl)-16-(4-hydroxybenzyl)-7-((R)-1-hydroxyethyl)-6,9,12,15,18-pentaoxo-1,2-dithia-5,8,11,14,17-pentaazacycloicosan-19-yl)amino)-1-oxo-3-phenylpropan-2-yl)amino)-2-oxoethyl)-1,4,7,10-tetraazacyclododecane-1,4,7-triyl)triacetate; actinium-225(3+)) [[^225Ac]Ac-DOTA-TATE]",free Actinium,[1]; 0 hour,0.5% free Actinium
same,Percentage of ^225Ac present in [^225Ac]Ac-DOTA-TATE,[1]; 0 hour,99.5%
same,fragments,[1]; 24 hours,3.2%
same,free Actinium,[1]; 24 hours,2.0%
same,Percentage of ^225Ac present in [^225Ac]Ac-DOTA-TATE,[1]; 24 hours,94.8%
same,fragments,[1]; 48 hours,4.8%
same,free Actinium,[1]; 48 hours,3.5%
same,Percentage of ^225Ac present in [^225Ac]Ac-DOTA-TATE,[1]; 48 hours,91.8%
same,fragments,[1]; 72 hours,7.7%
same,free Actinium,[1]; 72 hours,8.8%
same,Percentage of ^225Ac present in [^225Ac]Ac-DOTA-TATE,[1]; 72 hours,83.5%
same,fragments,[1]; 96 hours,11.8%
same,free Actinium,[1]; 96 hours,9.2%
same,Percentage of ^225Ac present in [^225Ac]Ac-DOTA-TATE,[1]; 96 hours,79.1%
same,Percentage of ^225Ac present in [^225Ac]Ac-DOTA-TATE,"[2]; 15 μCi/ml, 0 hour",99.37%
same,Percentage of ^225Ac present in [^225Ac]Ac-DOTA-TATE,"[2]; 15 μCi/ml, 24 hours",96.92%
same,Percentage of ^225Ac present in [^225Ac]Ac-DOTA-TATE,"[2]; 15 μCi/ml, 48 hours",96.08%
same,Percentage of ^225Ac present in [^225Ac]Ac-DOTA-TATE,"[2]; 15 μCi/ml, 72 hours",98.74%
same,Percentage of ^225Ac present in [^225Ac]Ac-DOTA-TATE,"[2]; 15 μCi/ml, 96 hours",94.83%
same,Percentage of ^225Ac present in [^225Ac]Ac-DOTA-TATE,"[2]; 15 μCi/ml, 120 hours",93.49%
same,Percentage of ^225Ac present in [^225Ac]Ac-DOTA-TATE,"[2]; 32 μCi/ml, 0 hour",99.39%
same,Percentage of ^225Ac present in [^225Ac]Ac-DOTA-TATE,"[2]; 32 μCi/ml, 24 hours",97.92%
same,Percentage of ^225Ac present in [^225Ac]Ac-DOTA-TATE,"[2]; 32 μCi/ml, 48 hours",97.13%
same,Percentage of ^225Ac present in [^225Ac]Ac-DOTA-TATE,"[2]; 32 μCi/ml, 72 hours",95.31%
same,Percentage of ^225Ac present in [^225Ac]Ac-DOTA-TATE,"[2]; 32 μCi/ml, 96 hours",92.52%
same,Percentage of ^225Ac present in [^225Ac]Ac-DOTA-TATE,"[2]; 32 μCi/ml, 120 hours",85.90%
same,Percentage of ^225Ac present in [^225Ac]Ac-DOTA-TATE,"[2]; 68 μCi/ml, 0 hour",99.06%
same,Percentage of ^225Ac present in [^225Ac]Ac-DOTA-TATE,"[2]; 68 μCi/ml, 24 hours",98.22%
same,Percentage of ^225Ac present in [^225Ac]Ac-DOTA-TATE,"[2]; 68 μCi/ml, 48 hours",95.93%
same,Percentage of ^225Ac present in [^225Ac]Ac-DOTA-TATE,"[2]; 68 μCi/ml, 72 hours",95.36%
same,Percentage of ^225Ac present in [^225Ac]Ac-DOTA-TATE,"[2]; 68 μCi/ml, 96 hours",86.92%
same,Percentage of ^225Ac present in [^225Ac]Ac-DOTA-TATE,"[2]; 126 μCi/ml, 0 hour",99.11%
same,Percentage of ^225Ac present in [^225Ac]Ac-DOTA-TATE,"[2]; 126 μCi/ml, 24 hours",95.77%
same,Percentage of ^225Ac present in [^225Ac]Ac-DOTA-TATE,"[2]; 126 μCi/ml, 48 hours",84.99%
same,Percentage of ^225Ac present in [^225Ac]Ac-DOTA-TATE,"[2]; 301 μCi/ml, 0 hour",99.09%
same,Percentage of ^225Ac present in [^225Ac]Ac-DOTA-TATE,"[2]; 301 μCi/ml, 24 hours",97.53%
same,Percentage of ^225Ac present in [^225Ac]Ac-DOTA-TATE,"[2]; 301 μCi/ml, 48 hours",88.78%
same,Percentage of ^225Ac present in [^225Ac]Ac-DOTA-TATE,"[2]; 550 μCi/ml, 0 hour",98.87%
same,Percentage of ^225Ac present in [^225Ac]Ac-DOTA-TATE,"[2]; 550 μCi/ml, 24 hours",97.04%
same,Percentage of ^225Ac present in [^225Ac]Ac-DOTA-TATE,"[2]; 550 μCi/ml, 48 hours",85.63%
same,Percentage of ^225Ac present in [^225Ac]Ac-DOTA-TATE,"[3]; DTPA 0.05 mg/ml, 0 hour",98.74%
same,Percentage of ^225Ac present in [^225Ac]Ac-DOTA-TATE,"[3]; DTPA 0.05 mg/ml, 24 hours",97.67%
same,Percentage of ^225Ac present in [^225Ac]Ac-DOTA-TATE,"[3]; DTPA 0.05 mg/ml, 48 hours",95.34%
same,Percentage of ^225Ac present in [^225Ac]Ac-DOTA-TATE,"[3]; DTPA 0.05 mg/ml, 72 hours",94.62%
same,Percentage of ^225Ac present in [^225Ac]Ac-DOTA-TATE,"[3]; DTPA 0.1 mg/ml, 0 hour",97.52%
same,Percentage of ^225Ac present in [^225Ac]Ac-DOTA-TATE,"[3]; DTPA 0.1 mg/ml, 24 hours",98.30%
same,Percentage of ^225Ac present in [^225Ac]Ac-DOTA-TATE,"[3]; DTPA 0.1 mg/ml, 48 hours",96.74%
same,Percentage of ^225Ac present in [^225Ac]Ac-DOTA-TATE,"[3]; DTPA 0.1 mg/ml, 72 hours",94.36%
same,Percentage of ^225Ac present in [^225Ac]Ac-DOTA-TATE,"[3]; DTPA 0.3 mg/ml, 0 hour",98.06%
same,Percentage of ^225Ac present in [^225Ac]Ac-DOTA-TATE,"[3]; DTPA 0.3 mg/ml, 24 hours",97.19%
same,Percentage of ^225Ac present in [^225Ac]Ac-DOTA-TATE,"[3]; DTPA 0.3 mg/ml, 48 hours",96.11%
same,Percentage of ^225Ac present in [^225Ac]Ac-DOTA-TATE,"[3]; DTPA 0.3 mg/ml, 72 hours",93.60%
same,Percentage of ^225Ac present in [^225Ac]Ac-DOTA-TATE,"[3]; DTPA 0.5 mg/ml, 0 hour",98.40%
same,Percentage of ^225Ac present in [^225Ac]Ac-DOTA-TATE,"[3]; DTPA 0.5 mg/ml, 24 hours",97.28%
same,Percentage of ^225Ac present in [^225Ac]Ac-DOTA-TATE,"[3]; DTPA 0.5 mg/ml, 48 hours",95.07%
same,Percentage of ^225Ac present in [^225Ac]Ac-DOTA-TATE,"[3]; DTPA 0.5 mg/ml, 72 hours",92.73%
same,Percentage of ^225Ac present in [^225Ac]Ac-DOTA-TATE,"[3]; DTPA 0.8 mg/ml, 0 hour",98.02%
same,Percentage of ^225Ac present in [^225Ac]Ac-DOTA-TATE,"[3]; DTPA 0.8 mg/ml, 24 hours",97.60%
